Data as given in patent publication US20040241689A1 (published 2004).

Target: T1, human plasma fibronectin (human, UniProt P02751 32-2296)
T1 construct: Bought (Sigma); used in solution for ligand blots, coated on microtitre wells, or coupled to Sepharose; also called Fn; human Fn
Assay: ELISA, recombinant protein titrated on immobilized human Fn (100 ng/well), detected with antiserum

T1 sequence (P02751 other isoform, or with tags, fused parts or gaps limits assumed): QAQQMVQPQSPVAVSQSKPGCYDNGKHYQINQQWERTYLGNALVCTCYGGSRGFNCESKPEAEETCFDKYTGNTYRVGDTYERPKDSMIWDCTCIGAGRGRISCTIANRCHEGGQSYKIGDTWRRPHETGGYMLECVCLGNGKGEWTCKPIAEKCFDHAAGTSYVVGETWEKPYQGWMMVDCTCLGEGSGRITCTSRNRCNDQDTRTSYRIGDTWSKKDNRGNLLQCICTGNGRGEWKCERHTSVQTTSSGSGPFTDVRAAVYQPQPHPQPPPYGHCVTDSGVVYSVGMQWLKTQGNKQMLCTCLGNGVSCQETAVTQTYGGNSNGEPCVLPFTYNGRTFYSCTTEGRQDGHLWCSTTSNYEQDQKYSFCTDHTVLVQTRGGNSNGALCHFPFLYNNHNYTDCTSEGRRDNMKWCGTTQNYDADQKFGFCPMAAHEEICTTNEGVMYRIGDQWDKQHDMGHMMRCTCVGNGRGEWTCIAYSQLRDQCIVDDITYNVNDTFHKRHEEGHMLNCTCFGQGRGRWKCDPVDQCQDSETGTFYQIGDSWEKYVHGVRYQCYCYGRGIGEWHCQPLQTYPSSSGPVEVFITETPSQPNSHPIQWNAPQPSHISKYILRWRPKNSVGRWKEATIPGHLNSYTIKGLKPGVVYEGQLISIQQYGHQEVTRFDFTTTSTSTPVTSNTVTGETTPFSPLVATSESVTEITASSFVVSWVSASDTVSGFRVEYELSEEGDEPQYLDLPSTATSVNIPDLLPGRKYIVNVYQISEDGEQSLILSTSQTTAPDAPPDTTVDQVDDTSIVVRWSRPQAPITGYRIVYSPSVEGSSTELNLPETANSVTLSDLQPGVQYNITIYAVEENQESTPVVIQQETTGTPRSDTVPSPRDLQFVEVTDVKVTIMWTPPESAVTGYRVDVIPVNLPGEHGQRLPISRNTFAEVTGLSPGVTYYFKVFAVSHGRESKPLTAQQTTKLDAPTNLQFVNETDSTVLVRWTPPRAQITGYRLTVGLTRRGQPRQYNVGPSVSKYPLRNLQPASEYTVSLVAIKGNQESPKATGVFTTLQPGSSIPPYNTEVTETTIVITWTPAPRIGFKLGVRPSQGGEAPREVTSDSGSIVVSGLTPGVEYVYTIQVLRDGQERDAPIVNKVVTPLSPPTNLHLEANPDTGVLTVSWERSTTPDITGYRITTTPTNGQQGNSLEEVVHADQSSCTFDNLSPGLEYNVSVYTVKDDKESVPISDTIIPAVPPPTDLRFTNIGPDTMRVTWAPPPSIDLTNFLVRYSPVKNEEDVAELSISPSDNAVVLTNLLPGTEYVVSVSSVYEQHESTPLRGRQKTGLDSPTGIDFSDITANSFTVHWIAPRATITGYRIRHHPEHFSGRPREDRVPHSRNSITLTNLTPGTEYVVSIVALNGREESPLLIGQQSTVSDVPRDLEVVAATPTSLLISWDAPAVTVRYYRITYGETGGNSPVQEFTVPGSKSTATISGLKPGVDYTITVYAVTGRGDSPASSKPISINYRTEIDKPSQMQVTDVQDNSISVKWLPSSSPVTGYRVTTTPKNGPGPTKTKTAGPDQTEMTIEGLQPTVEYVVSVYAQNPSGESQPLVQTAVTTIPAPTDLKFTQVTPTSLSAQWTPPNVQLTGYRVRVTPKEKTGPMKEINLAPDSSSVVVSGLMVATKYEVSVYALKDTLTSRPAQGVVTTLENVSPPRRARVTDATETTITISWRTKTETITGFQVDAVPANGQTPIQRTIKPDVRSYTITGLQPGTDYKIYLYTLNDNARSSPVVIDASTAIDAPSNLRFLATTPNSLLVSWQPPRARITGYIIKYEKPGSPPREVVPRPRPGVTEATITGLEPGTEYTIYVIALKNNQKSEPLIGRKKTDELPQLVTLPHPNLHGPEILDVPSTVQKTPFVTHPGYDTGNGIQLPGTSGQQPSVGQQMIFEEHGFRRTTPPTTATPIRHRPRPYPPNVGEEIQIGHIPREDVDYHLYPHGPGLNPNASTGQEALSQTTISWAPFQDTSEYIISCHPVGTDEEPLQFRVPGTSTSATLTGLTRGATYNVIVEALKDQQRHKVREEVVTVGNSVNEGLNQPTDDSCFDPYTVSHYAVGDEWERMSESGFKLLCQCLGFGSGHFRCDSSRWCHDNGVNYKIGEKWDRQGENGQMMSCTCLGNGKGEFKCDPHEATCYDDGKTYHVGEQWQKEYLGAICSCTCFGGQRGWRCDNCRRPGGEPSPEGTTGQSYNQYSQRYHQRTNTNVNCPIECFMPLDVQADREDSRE

B1: recombinant NPDH (His10-NPDH-B), amino acids 1-244 of Mycoplasma pneumoniae pyruvate dehydrogenase E1 beta subunit (other)
chain: MSKTIQANNIEALGNAMDLALERDPNVVLYGQDAGFEGGVFRATKGLQKKYGEERVWDCPIAEAAMAGIGVGAAIGGLKPIVEIQFSGFSFPAMFQIFTHAARIRNRSRGVYTCPIIVRMPMGGGIKALEHHSETLEAIYGQIAGLKTVMPSNPYDTKGLFLAAVESPDPVVFFEPKKLYRAFRQEIPADYYTVPIGQANLISQGNNLTIVSYGPTMFDLINMVYGGELKDKGIELIDLRTISP
B1 was tested. Which Kd did it give?
The Kd was 0.075 µg/mL.
